Assay in all cases: ITC
(In general: Isothermal titration calorimetry measures the heat released or taken up as one component is titrated into another.)

In test [1] the target is KIX domain of CREB-binding protein (CBP), residues 586–672 (UniProt P45481 586-672).
For test [2], the target named is F612A/D622A/R624A/K667E quadruple CBPKIX mutant (UniProt P45481 586-672, F612A | D622A | R624A | K667E).
Test [3] has as its target Y650A/A654Q/Y658V triple CBPKIX mutant (UniProt P45481 586-672, Y650A | A654Q | Y658V).

KIX domain of CREB-binding protein (CBP), residues 586–672, sequence (P45481 586-672): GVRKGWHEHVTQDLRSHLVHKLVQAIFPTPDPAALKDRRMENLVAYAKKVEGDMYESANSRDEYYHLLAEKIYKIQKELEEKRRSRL
F612A/D622A/R624A/K667E quadruple CBPKIX mutant, sequence (P45481 586-672 F612A/D622A/R624A/K667E): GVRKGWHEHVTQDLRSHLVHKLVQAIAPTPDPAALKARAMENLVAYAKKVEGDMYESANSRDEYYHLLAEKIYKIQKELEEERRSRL
Y650A/A654Q/Y658V triple CBPKIX mutant, sequence (P45481 586-672 Y650A/A654Q/Y658V): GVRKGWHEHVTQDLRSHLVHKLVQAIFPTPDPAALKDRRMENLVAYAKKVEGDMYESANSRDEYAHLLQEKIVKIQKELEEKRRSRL

In the case of PGYPNGLLSGDEDFSSIADMDFSALLSQISS (peptide, UniProt Q04206 521-551, looked up) [transactivation domain 1 (TA1) of the p65 subunit of NF-κB, residues 521–551, L523Y], the equilibrium dissociation constant (Kd) – broadly, the constant that tells how readily two partners part at equilibrium – in test [1] stood at 15 ± 3 µM; in test [3], 13 ± 2 µM. Further, in test [2], the “fold decrease in affinity against wild-type CBPKIX” value was ≥ 100 fold. Take PGYPNGLLSGDEDFSSIADMDASALLSQISS (peptide, UniProt Q04206 521-551, looked up) [F542A mutant of p65TA1]: the “fold decrease in affinity against wild-type p65TA1” value in test [1] was ≥ 100 fold. The same measure, in the same setting: to PGYPNGLLSGDEDFSSIADMDFSAALSQISS (peptide, UniProt Q04206 521-551, looked up) [L545A mutant of p65TA1] belongs ~1.5 fold; to PGYPNGLLSGDEDFSSIADMDFSALASQISS (peptide, UniProt Q04206 521-551, looked up) [L546A mutant of p65TA1], ~1.5 fold.
